B1: huC242-SPP-DM1: huC242 DM1 conjugate with relatively labile cleavable disulfide linker SPP (conjugate, chains of the INN, looked up)
VH: QVQLVQSGAEVKKPGETVKISCKASDYTFTYYGMNWVKQAPGQGLKWMGWIDTTTGEPTYAQKFQGRIAFSLETSASTAYLQIKSLKSEDTATYFCARRGPYNWYFDVWGQGTTVTVSS
VL: DIVMTQSPLSVPVTPGEPVSISCRSSKSLLHSNGNTYLYWFLQRPGQSPQLLIYRMSNLVSGVPDRFSGSGSGTAFTLRISRVEAEDVGVYYCLQHLEYPFTFGPGTKLELK
modifications: DM1 via SPP disulfide linker
B2: huC242-SIAB-DM1: huC242 conjugate of DM1 synthesized with the non-cleavable linker SIAB (conjugate, chains of the INN, looked up)
VH: B1 VH
VL: B1 VL
modifications: DM1 via SIAB linker
B3: huC242-non-S-containing non-cleavable linker-DM1: huC242 conjugated with a maytansinoid active ester forming a non-sulfur-containing non-cleavable linker (conjugate, chains of the INN, looked up)
VH: B1 VH
VL: B1 VL
modifications: DM1 via non-sulfur non-cleavable linker

Tests used:
Namalwa cells = assay: cell destroying activity, antigen-negative cells (bystander study); assay type: cell-based
Excerpt: (§1) An additional aspect of conjugates prepared with non-cleavable linkers compared to conjugates that have cleavable disulfide linkers is the absence of activity toward antigen-negative cells when in close proximity to antigen-positive cells, termed here the bystander effect. That is, the conjugates prepared with non-cleavable linkers have minimal bystander activity. […] This minimal bystander activity of the non-cleavable conjugate, as measured in this in vitro assay, may contribute to the increased tolerability of conjugate with non-cleavable linkers observed in acute toxicity studies.

[1] = plasma clearance of conjugates; assay type: in vivo; conditions: plasma, conjugate, FIG. 11
Excerpt: This is in sharp contrast to plasma clearance of conjugates prepared with relatively labile disulfide bonds such as huC242-SPP-DM1. […] The non-cleavable SMCC linkage is therefore much more resistant to maytansinoid-linker cleavage activities present in vivo than the SPP-DM1 conjugate. […] This increased exposure could have substantial impact on drug efficacy in some cases.

[2] = Pharmacokinetic Studies of huC242-SPP-DM1 and huC242-SCC-DM1 conjugates inCD-1 Mice Plasma clearance curves and Pharmacokinetic parameters
Excerpt: Table printed on a drawing sheet, FIG. 11
Title: Pharmacokinetic Studies of huC242-SPP-DM1 and huC242-SCC-DM1 conjugates inCD-1 Mice Plasma clearance curves and Pharmacokinetic parameters
First reader's note: Rows without -DM1 (huC242-SMCC, huC242-SPP) appear to be the antibody component of the same conjugates, as in the plot legend; study in CD-1 mice.

COLO 205 cell line = assay: cell destroying activity, antigen-positive cells (bystander study); assay type: cell-based, human; conditions: COLO 205 cultured separately
Excerpt: as §1

[3] = acute toxicity test, single intravenous dose; assay type: in vivo, female CD-1 mice
Method: Maytansinoid conjugates prepared with non-cleavable linkers such as SMCC show an unexpected increased tolerability in mice compared with conjugates prepared with cleavable disulfide linkers. An acute toxicity test with a single intravenous dose was carried out in female CD-1 mice. A comparison of the tolerability of a huC242-SMCC-DM1 conjugate (non-cleavable) with huC242 conjugates prepared with linkers containing cleavable disulfide bonds was conducted by monitoring the death of mice (FIGS. 12A and B) and signs of toxicity (FIGS. 12C and D) over a series of four escalating doses of each conjugate. The maximum tolerated dose (MTD) for the SMCC-DM1 conjugate was greater than the highest dose tested (150 mg/kg) while the MTD for the disulfide-linked conjugate SPP-DM1 was in the range of 45-90 mg/kg.

COLO205 cells = assay: cell cycle arrest by flow cytometry; assay type: cell-based, human; conditions: 30 hours post-treatment
Method: Maytansinoid conjugates are thought to impart their cell destroying activity through the inhibition of microtubule polymerization. This inhibition of microtubule polymerization leads to an arrest of the cell cycle principally at G2/M. The antigen-dependent arrest of cells at G2/M by antibody-maytansinoid conjugates can be monitored by flow cytometry analysis (FIG. 13). Treatment of COLO205 cells with huC242-SPP-DM1 or huC242-SMCC-DM1 conjugate results in a complete G2/M arrest by 6-10 hours. […] The difference in the durability of the activity of these two conjugates is also reflected in percentage of dead cells at the 30 hour time point, as judged by a dye exclusion assay using trypan blue.

[4] = in vitro clonogenic / indirect cytotoxicity assays, cell line not given; assay type: cell-based; conditions: for cytotoxicity in clonogenic assays in vitro: FIGS. 9, 22, 28
Excerpt: Cell-binding agent maytansinoid conjugates of the invention can be evaluated for their ability to suppress proliferation of various cell lines in vitro. For example, cell lines such as the human colon carcinoma line COLO205, the human melanoma cell line A375, the human myeloid leukemia cell line HL60, the human breast carcinoma line SKBR3, or the human epidermoid carcinoma cell line KB can be used for the assessment of cytotoxicity of these conjugates. Cells to be evaluated can be exposed to the compounds for 24 hours and the surviving fractions of cells measured in direct assays by known methods. (See, e.g. Goldmacher et al., 135 J. Immunol. 3648-3651 (1985), and Goldmacher et al., 102 J. Cell Biol. 1312-1319 (1986).) IC50 values can then be calculated from the results of the assays.

COLO 205 cells = assay: indirect FACS binding assay on COLO 205 cells; set-up: species or system human; conditions: higher than free huC242 antibody; COLO 205 cells
Method: The inventors carried out binding and cytotoxicity studies on the huC242-non-S-containing non-cleavable linker-DM1 conjugate. First, the binding affinities of huC242 antibody, huC242-SMNP-DM3, and huC242-non-S-containing non-cleavable linker-DM1 to COLO 205 cells were compared. 5×10^3 cells per well were used, with a three hour primary incubation on ice. The huC242-non-S-containing non-cleavable linker-DM1 conjugate had about a two-fold higher apparent dissociation constant than free antibody (see FIG. 23).

Molecule	cell destroying activity (Namalwa cells; Namalwa cultured separately)	bystander cell destroying activity toward Namalwa cells (Namalwa cells; co-cultures of COLO 205 and Namalwa cells)	half-life for clearance [1]	AUC | [2]	CL | [2]	Cmax | [2]	Vss | [2]	t1/2 | hour [2]	cell destroying activity (COLO 205 cell line)	time by which lethal toxicity was observed for all mice ([3]; at 150 mg/kg, post-treatment)	survival / lethal toxicity ([3]; at 150 mg/kg, single intravenous dose)	maximum tolerated dose (MTD) ([3]; single intravenous dose, female CD-1 mice)	durability of cell cycle arrest (COLO205 cells)	cytotoxicity in clonogenic assays in vitro [4]	apparent dissociation constant relative to free antibody (COLO 205 cells)	in vitro cytotoxicity compared with huC242-SMNP-DM3 ([4]; FIG. 22)	IC50 ([4]; in vitro cytotoxicity, FIG. 22)
B1	no activity	dramatic cell destroying activity	40 to 50 h	9205.7 µg·h/mL	1.1 mL/h/kg	191.4 µg/mL	0.0926 L/kg	49.8 h	potent cell destroying activity	≤ 96 h	lethal toxicity was observed for all mice	45 to 90 mg/kg	escape from cell cycle arrest and reinitiate cell division				
B2														potent and antigen-specific cytotoxicity			
B3														potent and antigen-specific cytotoxicity	two	comparable to huC242-SMNP-DM3	7 pM
